Literature values as cited in patent US20110300070A1, “BIOMOLECULE COMPLEXES AS CONTRAST AGENTS IN POSITRON EMISSION TOMOGRAPHY (PET) BASED METHODS FOR THE ASSESSMENT OF ORGAN FUNCTION” (priority 2008, published 2011).

B1: cystatin C: cysteine protease inhibitor, about 120 amino acids, about 13 kD (protein, UniProt P01034 27-146, looked up)
Cystatin-C: SSPGKPPRLVGGPMDASVEEEGVRRALDFAVGEYNKASNDMYHSRALQVVRARKQIVAGVNYFLDVELGRTTCTKTQPNLDNCPFHDQPHLKRKAFCSFQIYAVPWQGTMTLSKSTCQDA

Test system: proximal tubular cells
Settings: in vivo

Molecule	time window where the filtered amount of the tracer is still quantitatively retained in the proximal tubular cells	optimal clearance period
cytochrome C: heme protein, about 100 amino acids, about 12 kD	about 5 minutes	
B1	about 5 minutes	less than 5 minutes
